For the series, the system named is Escherichia coli TOP10. Briefly: shrunken log2 fold change of peptide-encoding DNA abundance (4.5 h post-induction vs induction); higher = less antimicrobial activity (less host growth inhibition). Conditions: time post-induction: 4.5 h; library: site-saturation at positions 5, 18, 19, 20.
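Note: peptides expressed intracellularly from a pBAD plasmid library in pooled LB shake-flask culture, induced with 0.3% L-arabinose, DNA abundance read by NGS, three biological replicates, DESeq2 with apeglm shrinkage.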

For RRIRRRPPRLPRPRPRPTPQPRP, the “shrunken log2 fold change” value stood at 1.52. Take RRIRARPPRLPRPRPRPTGTPRP: the “shrunken log2 fold change” value was 0.363.

For RRIRSRPPRLPRPRPRPTIRPRP, the “shrunken log2 fold change” value came to 0.0218. As to RRIRRRPPRLPRPRPRPYSAPRP, the “shrunken log2 fold change” value was -0.137. For RRIRHRPPRLPRPRPRPTNNPRP, the “shrunken log2 fold change” value is -0.467.

RRIRPRPPRLPRPRPRPGAWPRP: the “shrunken log2 fold change” value stood at 0.132. RRIRMRPPRLPRPRPRPCQFPRP: the “shrunken log2 fold change” value came out at 0.0126.

Regarding RRIRNRPPRLPRPRPRPDKIPRP, the “shrunken log2 fold change” value came out at 0.159.

On to RRIRWRPPRLPRPRPRPISQPRP, for which the “shrunken log2 fold change” value is -0.392. For RRIRQRPPRLPRPRPRPLFEPRP, the “shrunken log2 fold change” value worked out at 0.0725.

In the case of RRIRGRPPRLPRPRPRPRTNPRP, the “shrunken log2 fold change” value stood at 0.588. As for RRIRERPPRLPRPRPRPFYNPRP, the figure is -0.306; as for RRIRERPPRLPRPRPRPLTMPRP, -0.308; as for RRIRPRPPRLPRPRPRPGWRPRP, 0.438. As for RRIRMRPPRLPRPRPRPADDPRP, the “shrunken log2 fold change” value is -0.00235. Turning to RRIRRRPPRLPRPRPRPAESPRP, the “shrunken log2 fold change” value was 0.256. Regarding RRIRTRPPRLPRPRPRPKIAPRP, the “shrunken log2 fold change” value is -0.0425. In the case of RRIRVRPPRLPRPRPRPMTAPRP, the “shrunken log2 fold change” value was -0.12. Take RRIRGRPPRLPRPRPRPNSPPRP: the “shrunken log2 fold change” value was -0.0974. For RRIRRRPPRLPRPRPRPLVTPRP the value was -0.0631; for RRIRTRPPRLPRPRPRPQYLPRP, -0.436; for RRIRTRPPRLPRPRPRPGFQPRP, -0.0547. In the case of RRIRRRPPRLPRPRPRPCYYPRP, the “shrunken log2 fold change” value worked out at 0.0129. Consider RRIRRRPPRLPRPRPRPFPLPRP, for which the “shrunken log2 fold change” value was determined as 0.49. As to RRIRRRPPRLPRPRPRPPVFPRP, the “shrunken log2 fold change” value was 0.55. As for RRIRMRPPRLPRPRPRPGKEPRP, the “shrunken log2 fold change” value worked out at 0.137.

Take RRIRWRPPRLPRPRPRPSSFPRP: the “shrunken log2 fold change” value is -0.00317. Turning to RRIRRRPPRLPRPRPRPKENPRP, the “shrunken log2 fold change” value was determined as 0.325.

As to RRIRSRPPRLPRPRPRPASPPRP, the “shrunken log2 fold change” value was -0.0809.

As to RRIRYRPPRLPRPRPRPIPVPRP, the “shrunken log2 fold change” value is -0.0888. For the sequence RRIRMRPPRLPRPRPRPRAEPRP, the “shrunken log2 fold change” value came out at 1.73. With RRIRERPPRLPRPRPRPKKSPRP, the “shrunken log2 fold change” value is -0.182. RRIRGRPPRLPRPRPRPVRYPRP: the “shrunken log2 fold change” value came to 0.428.

As for RRIRRRPPRLPRPRPRPRHVPRP, the “shrunken log2 fold change” value was determined as 0.158.

With RRIRFRPPRLPRPRPRPDMAPRP, the “shrunken log2 fold change” value was -0.108. With RRIRKRPPRLPRPRPRPMDLPRP, the “shrunken log2 fold change” value came to 0.198.

In the case of RRIRTRPPRLPRPRPRPYAFPRP, the “shrunken log2 fold change” value is -0.17. Take RRIRMRPPRLPRPRPRPMWKPRP: the “shrunken log2 fold change” value was -0.00141. In the case of RRIRNRPPRLPRPRPRPGQMPRP, the “shrunken log2 fold change” value is 0.00315. In the case of RRIRWRPPRLPRPRPRPNHHPRP, the “shrunken log2 fold change” value is -0.457. As to RRIRARPPRLPRPRPRPQEAPRP, the “shrunken log2 fold change” value came to 0.197. On to RRIRGRPPRLPRPRPRPMFSPRP, for which the “shrunken log2 fold change” value turned out to be 0.147.

RRIRKRPPRLPRPRPRPGVSPRP: the “shrunken log2 fold change” value was 0.497. As for RRIRKRPPRLPRPRPRPRLKPRP, the “shrunken log2 fold change” value was 0.365. For RRIRMRPPRLPRPRPRPCKPPRP, the “shrunken log2 fold change” value was -0.173. RRIRVRPPRLPRPRPRPVGQPRP: the “shrunken log2 fold change” value turned out to be 0.0877. Regarding RRIRYRPPRLPRPRPRPHGTPRP, the “shrunken log2 fold change” value was -0.209.

As for RRIRHRPPRLPRPRPRPPEVPRP, the “shrunken log2 fold change” value is 0.0634. Take RRIRRRPPRLPRPRPRPSSEPRP: the “shrunken log2 fold change” value was -0.322. In the case of RRIRPRPPRLPRPRPRPPNMPRP, the “shrunken log2 fold change” value was -0.0209.

For the sequence RRIRPRPPRLPRPRPRPQQSPRP, the “shrunken log2 fold change” value is -0.236. As for RRIRIRPPRLPRPRPRPPVLPRP, the figure is 0.328. For RRIRVRPPRLPRPRPRPAIVPRP, the “shrunken log2 fold change” value was -0.149.

In the case of RRIRFRPPRLPRPRPRPWRFPRP, the “shrunken log2 fold change” value was found to be 0.22. For RRIRGRPPRLPRPRPRPMYIPRP, the “shrunken log2 fold change” value is -0.396. For RRIRTRPPRLPRPRPRPWFHPRP, the “shrunken log2 fold change” value was -0.362. With RRIRNRPPRLPRPRPRPYCPPRP, the “shrunken log2 fold change” value is -0.187. Turning to RRIRQRPPRLPRPRPRPPEMPRP, the “shrunken log2 fold change” value was -0.162.

For RRIRLRPPRLPRPRPRPPYQPRP, the “shrunken log2 fold change” value is -0.0294. On to RRIRRRPPRLPRPRPRPWCGPRP, for which the “shrunken log2 fold change” value was 0.282.

RRIRYRPPRLPRPRPRPEWSPRP: the “shrunken log2 fold change” value is -0.0724. Take RRIRWRPPRLPRPRPRPQVAPRP: the “shrunken log2 fold change” value stood at 0.472. Consider RRIRERPPRLPRPRPRPDYDPRP, for which the “shrunken log2 fold change” value is -0.021. For RRIRCRPPRLPRPRPRPRGSPRP, the “shrunken log2 fold change” value was determined as 0.511. With RRIRQRPPRLPRPRPRPATYPRP, the “shrunken log2 fold change” value was -0.287. As to RRIRIRPPRLPRPRPRPICTPRP, the “shrunken log2 fold change” value was -0.458. For the sequence RRIRPRPPRLPRPRPRPCCWPRP, the “shrunken log2 fold change” value was 0.81.

As to RRIRYRPPRLPRPRPRPDSGPRP, the “shrunken log2 fold change” value was -0.0811. As for RRIRHRPPRLPRPRPRPIDRPRP, the figure is -0.263; as for RRIRERPPRLPRPRPRPQCPPRP, -0.207. On to RRIRIRPPRLPRPRPRPYSEPRP, for which the “shrunken log2 fold change” value was -0.535. In the case of RRIRARPPRLPRPRPRPHYKPRP, the “shrunken log2 fold change” value was -0.424. For the sequence RRIRWRPPRLPRPRPRPDTWPRP, the “shrunken log2 fold change” value was 0.0829. For RRIRWRPPRLPRPRPRPLWNPRP the value was 0.169. For the sequence RRIRKRPPRLPRPRPRPSWSPRP, the “shrunken log2 fold change” value is -0.075.

Turning to RRIRNRPPRLPRPRPRPRFSPRP, the “shrunken log2 fold change” value turned out to be 0.0393.

Regarding RRIRWRPPRLPRPRPRPHSGPRP, the “shrunken log2 fold change” value came to 0.00842. For RRIRTRPPRLPRPRPRPMANPRP, the “shrunken log2 fold change” value was -0.102.

With RRIRWRPPRLPRPRPRPPANPRP, the “shrunken log2 fold change” value turned out to be 0.629. For RRIRQRPPRLPRPRPRPGWTPRP, the “shrunken log2 fold change” value amounted to 0.286. RRIRYRPPRLPRPRPRPCTCPRP: the “shrunken log2 fold change” value is 0.0744.

For the sequence RRIRCRPPRLPRPRPRPNDKPRP, the “shrunken log2 fold change” value is -0.46. Regarding RRIRQRPPRLPRPRPRPVGRPRP, the “shrunken log2 fold change” value turned out to be 0.336. As for RRIRSRPPRLPRPRPRPGQGPRP, the “shrunken log2 fold change” value stood at 0.0895.

RRIRKRPPRLPRPRPRPKIWPRP: the “shrunken log2 fold change” value stood at 0.475.

With RRIRVRPPRLPRPRPRPTQMPRP, the “shrunken log2 fold change” value was found to be 0.19.

Regarding RRIRIRPPRLPRPRPRPWDTPRP, the “shrunken log2 fold change” value is -0.231.

As for RRIRIRPPRLPRPRPRPFCTPRP, the “shrunken log2 fold change” value was -0.542. As for RRIRNRPPRLPRPRPRPMSNPRP, the figure is 0.0527; as for RRIRIRPPRLPRPRPRPHTDPRP, -0.777; as for RRIRYRPPRLPRPRPRPPAKPRP, 0.441. Take RRIRSRPPRLPRPRPRPSTRPRP: the “shrunken log2 fold change” value is -0.0999. For the sequence RRIRMRPPRLPRPRPRPWSDPRP, the “shrunken log2 fold change” value is -0.131.

On to RRIRDRPPRLPRPRPRPCEPPRP, for which the “shrunken log2 fold change” value worked out at 0.194. For RRIRFRPPRLPRPRPRPPTTPRP, the “shrunken log2 fold change” value is 0.276. For the sequence RRIRDRPPRLPRPRPRPMHIPRP, the “shrunken log2 fold change” value is -0.11. Take RRIRFRPPRLPRPRPRPQSVPRP: the “shrunken log2 fold change” value was -0.0251. As to RRIRDRPPRLPRPRPRPSAYPRP, the “shrunken log2 fold change” value was 0.0641.

Consider RRIRDRPPRLPRPRPRPCCDPRP, for which the “shrunken log2 fold change” value is 0.655. For RRIRFRPPRLPRPRPRPHCDPRP the value was -0.252; for RRIRSRPPRLPRPRPRPATIPRP, 0.115; for RRIRSRPPRLPRPRPRPVMRPRP, 0.594. Take RRIRFRPPRLPRPRPRPNYEPRP: the “shrunken log2 fold change” value was -0.774. For RRIRHRPPRLPRPRPRPQAKPRP, the “shrunken log2 fold change” value is -0.016. For RRIRNRPPRLPRPRPRPTHFPRP, the “shrunken log2 fold change” value was -0.659.

Turning to RRIRCRPPRLPRPRPRPAKWPRP, the “shrunken log2 fold change” value was found to be 0.235. Take RRIRIRPPRLPRPRPRPWMEPRP: the “shrunken log2 fold change” value is -0.172. For RRIRERPPRLPRPRPRPYQLPRP, the “shrunken log2 fold change” value is -0.0108. As for RRIRYRPPRLPRPRPRPQQLPRP, the “shrunken log2 fold change” value is -0.181. RRIRRRPPRLPRPRPRPKKNPRP: the “shrunken log2 fold change” value turned out to be 0.496. Turning to RRIRQRPPRLPRPRPRPLAKPRP, the “shrunken log2 fold change” value was -0.041. As for RRIRWRPPRLPRPRPRPAKPPRP, the figure is 0.0169; as for RRIRFRPPRLPRPRPRPKTSPRP, -0.0999; as for RRIRLRPPRLPRPRPRPFTWPRP, -0.369.

As to RRIRLRPPRLPRPRPRPCWKPRP, the “shrunken log2 fold change” value was 0.00126. Consider RRIRYRPPRLPRPRPRPELTPRP, for which the “shrunken log2 fold change” value was found to be 0.075. For RRIRNRPPRLPRPRPRPTAKPRP the value was -0.136. On to RRIRQRPPRLPRPRPRPAIMPRP, for which the “shrunken log2 fold change” value is -0.159. Take RRIRKRPPRLPRPRPRPDRRPRP: the “shrunken log2 fold change” value is 0.18. For RRIRARPPRLPRPRPRPVGKPRP the value was 0.196; for RRIRWRPPRLPRPRPRPRARPRP, 0.773. As to RRIRSRPPRLPRPRPRPMFHPRP, the “shrunken log2 fold change” value was -0.438. As to RRIRLRPPRLPRPRPRPGNGPRP, the “shrunken log2 fold change” value was determined as 0.0164. For RRIRIRPPRLPRPRPRPWFGPRP the value was -0.348; for RRIRCRPPRLPRPRPRPYSNPRP, -0.655.

Values taken from the supplement of paper PMC9112550, “Optimization of the antimicrobial peptide Bac7 by deep mutational scanning” (BMC Biology, 2022).
